Measurements from publication doi:10.1101/2023.01.19.524784 (bioRxiv, 2023).
Where a chain is given by its changes, count along the chain named. Names may count otherwise.

How the values were obtained:
[1] = biological target: SARS-CoV-2 Delta variant RBD (SARS-CoV-2, Delta (B.1.617.2), strain); assay: BLI
[2] = biological target: T1, SARS-CoV-2 receptor binding domain (RBD), wild type (SARS-CoV-2, wild type (Wuhan), UniProt P0DTC2); assay: BLI
[3] = biological target: T2, SARS-CoV-2 Omicron BA.1 RBD (SARS-CoV-2, Omicron BA.1, strain); assay: BLI
[4] = biological target: SARS-CoV-2 Beta variant RBD (SARS-CoV-2, Beta (B.1.351), strain); assay: BLI
[5] = biological target: T2, SARS-CoV-2 Omicron BA.1 RBD; assay: cell-based or functional assay
[6] = biological target: T1, SARS-CoV-2 receptor binding domain …; assay: cell-based or functional assay

B1: 21B6 (antibody, V domains shown)
VH: EVRLVESGGGLVQPGGSLRLSCAASGFTFSDYYISWVRQAPGRGPEWVGFIRNVLYRGTTEYAPSVKGRFIISRDDSRAIASLQMNGLKADDTAVYYCALGASGTDRDWFDVWGPGVLVTVSS
VL: DIQMTQSPSSLSASVGDTVTITCRASQDISNSLAWYQQKPGKAPKALIYYASNLESGVPSRFSGSGSGTDFTLTISSLQPEDFATYYCQQHNNYPFTFGPGTKVDIK
Kd [1]: < 0.666 pM | Kd [2]: < 0.666 pM | Kd [3]: < 0.666 pM | Kd [4]: < 0.666 pM | IC50 of neutralization of authentic SARS-CoV-2 BA.1 [5]: 11 ng/mL

B2: 20A7 (antibody, V domains shown)
VH: DVQLVESGGGLVKPGGSLRLSCVASGFTFSNSEMHWVRQAPGKGLEWVSVISESGETTHYADSVKGRFTISRDNANNLLLLQMNSLRADDTAVYYCTRYNWNNRVYALDSWGQGVVVTVSS
VL: EIVLTQSPATLSLSPGEGASLSCRASQTVIGSLAWYQQKPGQAPRLLIYGASSRATGIPDRFSGSGSGTDFTLTISSLEPEDFAVYYCQQYGNWPLTFGPGTRLDIR
Kd [1]: < 0.666 pM | Kd [2]: < 0.666 pM | Kd [3]: < 0.666 pM | Kd [4]: < 0.666 pM | IC50 of neutralization of authentic SARS-CoV-2 BA.1 [5]: 6 ng/mL

B3: 20A7-VH E33V (antibody, V domains shown)
VH: B2 VH with E33V
VL: B2 VL
fold reduction of binding against 20A7 [2]: ~300 fold

B4: 25F9 (antibody, V domains shown)
VH: EVQLVESGGGLVQPGGSLRLSCSASGFRFSDYWINWVRQAPGKGLEWVGFIKTKADFGTPAYAESVKGRFSISRDDSKNTVYLQMNSLKTEDTAVYYCTRDRGILEWLIIEAGWFDVWGPGVLVTVSS
VL: QSVLTQPPSASGAPGQRVTISCTGSSSNIGAGHYVSWYQQLPGTAPKLLIHENDKRPSGVSDRFSGSRSGASASLTITGLQSGDEADYYCSVWDRSLNTLFGGGTRVTVL
Kd [1]: < 0.666 pM | Kd [2]: < 0.666 pM | Kd [3]: < 0.666 pM | Kd [4]: < 0.666 pM | IC50 of neutralization of authentic SARS-CoV-2 D614G [6]: 6 ng/mL | IC50 of neutralization of authentic SARS-CoV-2 BA.1 [5]: 42 ng/mL
